Results published in the nanobody polyreactivity screen of Harvey et al. (2022).

Assay: yeast display, Sf9 membrane polyspecificity reagent, FACS + sequencing; frameworks hold sequencing errors
Summary of the method: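 Using colony PCR, genes from sorted yeast display clones were amplified, then sequenced on MiSeq at 2 × 250 and filtered by CDR length. The clones had been stained with 10% biotinylated, detergent-solubilized Sf9 membrane reagent for 1 hour at 4 °C and sorted by FACS into low and high (top ~1%) gates on anti-HA and streptavidin fluorescence. Polyreactivity labels come from the gate of origin.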

Sequence | polyreactivity (PSR sort gate)
QVQLVESGGGLVQAGGSLRLSCAASGSTFTSYAMGWYRQAPGKERELVAAIRYRGDGTYYADSVKGRCTISRDNAKNTVNLQMNSLKPEDNAVYYCAADTTLQAFIRYRPIGSYDSWGQGTKVTVSS | low polyreactivity
QVQLVESGGGLVQAGGSLRLSCAASGSTFTSYAMGWYRQAPGKERELVAAIRYRGDGTYYADSVKGRFTISRDNAKNTVYLQMNSLKPEDTAVYYCAADSRVYRGGYIYRYGYWGQGTQVTVSS | low polyreactivity
QVQLVESGGGLVQAGGSLRLSCAASGSTFTSYAMGWYRQAPGKERELVAAISWRGGSTYYADSVKGRFTISRDNAKNTVYLQMNSLKPEDTAVYYCNAVVRQPHDLDYWGQGTQVTVSS | high polyreactivity
QVQLVESGGGLVQAGGSLRLSCAASGSTFTSYAMGWYRQAPGKERELVASITRSGGRTYYADSVKGRFTISRDNAKNTVYLQMNSLKPEDTAVYYCARRYPGGYYWGQGTQVTVSS | high polyreactivity
QVQLVESGGGLVQAGGSLRLSCAASGSTFTVNAMGWYRQAPGKERELVAVIRKSGTSTYYADSVKGRFTISRDNAKNTVYFQMNSLKPEDTAVYYCAGGGPSTLDDYWGQGTQVTVSS | low polyreactivity
QVQLVESGGGLVQAGGSLRLSCAASGSTFTVYAMGWYRQAPGKEREFVAAITRRGGNTYYADSVKGRFTISRDNAKNTVYLQMNSLKPEDTAVYYCNADSPLNAYYGGRELDYWGQGTQVTVSS | high polyreactivity
QVQLVESGGGLVQAGGSLRLSCAASGSTFTVYAMGWYRQAPGKERELVAVITGSGGSTYYADSVKGRFTISRDNAKNTVYLQMNSLKPEDTAVYYCAKEPGENWTVSWRDFDYWGQGTQVTVSS | low polyreactivity
QVQLVESGGGLVQAGGSLRLSCAASGSTFTVYAMRWYRQAPGKERELVADITGGGRTYYADSVKGRFTISRDNAKNTVYLQMNSLKPEDTAVYYCAKKYSWRYARVYSLHFDYWGQGTQVTVSS | high polyreactivity
QVQLVESGGGLVQAGGSLRLSCAASGSTFTWNAMGWYRQAPGKERELVAAISGDGGSTYYADSVKGRFTISRDNAKNTVYLQMNSLKPEDTAVYYCAASSAHIFSYRYNFWGQGTQVTVSS | low polyreactivity
QVQLVESGGGLVQAGGSLRLSCAASGSTFTWYAMGWYRQAPGKERELVADISYGGGSTYYADSVKGRFTISRDNAKNTVYLPMNSLKPEDTAVYYCAAESIPYYRYDYWGQGTQVTVSS | low polyreactivity
QVQLVESGGGLVQAGGSLRLSCAASGSTFTWYGKGWYRQAPGKERELVAAISGSGGRTYYADSVKGRFTISRDNAKNTVYLQMNSLKPEDTAVYYCNADPANPFGTEFEYWGQGTQVTVSS | high polyreactivity
QVQLVESGGGLVQAGGSLRLSCAASGSTFTYYAMGWYRQAPGKEREWVAAISGGGDTYYADSVKGRFTISRDNAKNTVYLQMTSLKPEDTAVYYCNARVWAKSPRGSQYNMYDYWGQGTQVTVSS | high polyreactivity
QVQLVESGGGLVQAGGSLRLSCAASGSTFTYYAMGWYRQAPGNEREFVASLTYRGGRTNYADSVKGRFTISRDNATNTVYLQMNRQKPEDTAVYYCAARQRWTYAYDYWGQGTQVTVSS | high polyreactivity
QVQLVESGGGLVQAGGSLRLSCAASGSTFTYYAMGWYRQATGKETELVAAINIGGGGTYYADSVKGRFTISRDNAKNTVYLQMKSLKPEYTAVYYCATDIYFENGFGYWGQGTQVTVSS | low polyreactivity
QVQLVESGGGLVQAGGSLRLSCAASGSTFTYYTMGWYRQAPGKERELVAAISRTTGSTYYADSVKGRFTISRDNAKNTVYLQLNSLKPEDTAVDYCAAQSYKILLYFIGTAGDGYWGQGTQVTVSS | low polyreactivity
QVQLVESGGGLVQAGGSLRLSCAASGSTFVANTMGWYRQAPATERELVASITSGDSTNYADSVKGRFTISRDNAKNTVYFQMKSLKPEDTAVYYCAAETVWYYVGGQLIYYYWGQGTQVTVSS | low polyreactivity
QVQLVESGGGLVQAGGSLRLSCAASGSTFVAYAMGWYRQAPGKERELVAAISSVGRTNYADSVKGRFTISRDNAKYTVYLQMNSLKPEDTAVYYCAAVYVDRRKRSYYWGQGTQVTVSS | high polyreactivity
QVQLVESGGGLVQAGGSLRLSCAASGSTFVDKAMGWYRQAPGKERELVATISSGGSTYYADSVKGRFTISRDNAKNTVYLQMNSLKPEDTAVYYCNADGNKRYPWVDYWGQGTQVTVSS | low polyreactivity
QVQLVESGGGLVQAGGSLRLSCAASGSTFVDNALGGYRQAPGKERELVAGISIGGITYYADSVKGRFTISRDNAKNTVYLQMNSLKPEDTAVYYCAKRHKRTRNKYYYWGQGTQVTVSS | high polyreactivity
QVQLVESGGGLVQAGGSLRLSCAASGSTFVDYAMGWYRQAPGKERELVAAINERGGSTYYADSVKGRFTISRDNAKNTVYLQMNSLKPEDTAVYYCAARRRTRSSHSWYIRYGYWGQGTQVTVSS | low polyreactivity

Sequence | polyreactivity (PSR sort gate)
QVQLVESGGGLVQAGGSLRLSCAASGSTFVFYAMGWYRPAPGKERELVASISFRGGSTRYADSVKGRFTISRDNAKNTVYLHMNSLKPEDTAVYYCNARPFYRYYYWGQGTQVTVSS | high polyreactivity
QVQLVESGGGLVQAGGSLRLSCAASGSTFVGNAMGWYRQAPGKERELVAAISSDSSTYYADSVKGRFTISRDNAKNTVYLQMNSLKPEDTAVYYCAEYYPGYGYGYWGQGTQVTVSS | low polyreactivity
QVQLVESGGGLVQAGGSLRLSCAASGSTFVGNAMGWYRQAPGKERELVAAITGGGGSTYYADSVKGRFTISRDNAKNTVYLQMNSLKPEDTAVYYCARDRTDYYVWYVRYYYWGQGTQVTVSS | low polyreactivity
QVQLVESGGGLVQAGGSLRLSCAASGSTFVGTALGWYRQAPGKVRELVATISNSGGRTYYADSVKGRFTISRDNAKNTVYLQMNSLKPEDTAVYYCAADHPVFGPGYSFDYWGQGTQVTVSS | low polyreactivity
QVQLVESGGGLVQAGGSLRLSCAASGSTFVGYAMGWYRQAPGKEREFVAAITRGGSTNYADSVKGRFTISRDNAKNTVYLQMNSLKPEDTAVYYCAARDRREGFNFDYWGQGTQVTVSS | low polyreactivity
QVQLVESGGGLVQAGGSLRLSCAASGSTFVGYAMGWYRQAPGKERELVAGITASGTNTYYADSVKGRFTISRDNAKNTVYLQMNSLKPEDTAVYYCAAAFVRPPPYVGYSRFDYWGQGTQVTVSS | high polyreactivity
QVQLVESGGGLVQAGGSLRLSCAASGSTFVGYFMGWYRQAPGKERELVAAITKIGGSTYYADSVKGSFTISRDNAKNNVYLQMNSLKPEDTAVYYCARTRSRWRYPIFYYWGQGTQVTVSS | high polyreactivity
QVQLVESGGGLVQAGGSLRLSCAASGSTFVGYTLGWSRQAPGNERELVASLSWDGGSTYYADSVKGRFTISRDNAKNTVYLQMNSLKPEDTAVYYCNADQGIIGAYTNSLPEYDYWGLGTQVTVSS | low polyreactivity
QVQLVESGGGLVQAGGSLRLSCAASGSTFVGYTMGWYRQAPGKERELVASITSDGSTNYADSVKGRFTISRDNAKNTVYLQMNSLKPEDTAVYYCNADIRRHGGYAHEYWGQGTQVTVSS | low polyreactivity
QVQLVESGGGLVQAGGSLRLSCAASGSTFVINAMGWYRQAPGKERELVAAIDFSGGSTYYADSVKGRFTISRDNAKNTVYLQMNSLKPEDTAVYYCAAVLSSYGYGGYTWYDYEYWGKGTQVTVSS | high polyreactivity
QVQLVESGGGLVQAGGSLRLSCAASGSTFVIYGMGWYRQAPGKERELVADITWIGGSTYYADSVKGRFTISRDNAKNTVYLQMNSLKPEDTAVYYCAADAAYLYLYNWYDTEDDYWGEGTQVTVSS | low polyreactivity
QVQLVESGGGLVQAGGSLRLSCAASGSTFVKNAMGWYRQAPGKERELVAAIRSSGGSTYYADSVKGRFTISRDNAKNTVYLQMNSLKPEDTAVYYCNKVLQASRSKYYYWGQGTQVTVSS | high polyreactivity
QVQLVESGGGLVQAGGSLRLSCAASGSTFVKNAMGWYRQAPGKERELVAAISGRGGSTYYADSVKGRFTISRDNAKNTVYLQMNSLKPEDTAVYYCNKAYSVAYTYNYWGQGTQVTVSS | high polyreactivity
QVQLVESGGGLVQAGGSLRLSCAASGSTFVKNAMGWYRQAPGKERELVAAISYRGGRTYYADSVKGRYTISRDNAKNTVYLQMNSLKPEDTAVYYCNARYRTPSFIRMGYWGQGTQVTVSS | high polyreactivity
QVQLVESGGGLVQAGGSLRLSCAASGSTFVKYAMGWYRQAPGKERELVAAISWSGGRTYYADSVKGRFTISRDNAKNTVYLQMNSLKPEDTAVYYCAARSWYDRYPYYSWGQGTQVTVSS | high polyreactivity
QVQLVESGGGLVQAGGSLRLSCAASGSTFVLYAMGWYRQAPGKERELVAAITWTGGTTNYADSVKGRFTISLDNAKNTDYLQMNILQPEDTAVSYCAAKTNGRYDYWGQGTQVTVSS | low polyreactivity
QVQLVESGGGLVQAGGSLRLSCAASGSTFVNYGMGWYRQAPGKERELVAAITQSGGSTYYADSVKGRFTISRDNAKNTVYLQMNSLKPEDTAVYYCAAEVVRQWHGIGYDYWGQGTQVTVSS | low polyreactivity
QVQLVESGGGLVQAGGSLRLSCAASGSTFVPNAMGWYRQAPGKERELVAAISSVGSTNYADSVKGRFTISRDNAKNTVYLQLNSLKPEDTAVYYCAVRYPWRYFKYGYWGQGTQVTVSS | low polyreactivity
QVQLVESGGGLVQAGGSLRLSCAASGSTFVPNAMGWYRQAPGKERELVAAISSVGSTNYADSVKGRFTISRDNAKNTVYLQMNSLKPEDTAVYYCAVRYPWRYFKYGYWGQGSQVTVSS | low polyreactivity
QVQLVESGGGLVQAGGSLRLSCAASGSTFVPNAMGWYRQAPGKERELVADITSGGITNYADSVKGRFTISRDNAKNTVYLQMISLNPEDTGVYYCAVLYYILAPGYDYWGQGTLVTVSS | low polyreactivity
